From article PMC12309418 (2025) come the findings set out here.

For assay [1], the target named is T1, PLS2 RD-ABD1 (a.a. 1–385) (human, UniProt P13796 1-385).
T1 chain: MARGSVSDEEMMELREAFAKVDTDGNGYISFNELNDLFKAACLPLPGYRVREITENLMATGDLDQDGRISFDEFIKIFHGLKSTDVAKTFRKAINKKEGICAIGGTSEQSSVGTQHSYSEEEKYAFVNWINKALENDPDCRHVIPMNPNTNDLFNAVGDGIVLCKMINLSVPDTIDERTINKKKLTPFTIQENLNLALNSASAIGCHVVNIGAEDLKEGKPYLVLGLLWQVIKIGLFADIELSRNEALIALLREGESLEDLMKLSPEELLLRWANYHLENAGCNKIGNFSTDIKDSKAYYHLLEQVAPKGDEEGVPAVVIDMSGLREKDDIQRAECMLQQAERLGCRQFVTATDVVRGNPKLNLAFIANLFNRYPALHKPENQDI
The experiment in a line: FP; pH 7.0.

The target of assay [2] is T1, PLS2 RD-ABD1 (a.a. 1–385). The experiment in a line: FP; pH 8.0.

What is called Kd is the equilibrium constant for the complex coming apart.

B1: fluorescein-maleimide labeled PLS2 ABD2 (FM-ABD2) (domain or fragment)
chain: PENQDIDWGALEGETREERTFRNWMNSLGVNPRVNHLYSDLSDALVIFQLYEKIKVPVDWNRVNKPPYPKLGGNMKKLENCNYAVELGKNQAKFSLVGIGGQDLNEGNRTLTLALIWQLMRRYTLNILEEIGGGQKVNDDIIVNWVNETLREAKKSSSISSFKDPKISTSLPVLDLIDAIQPGSINYDLLKTENLNDDEKLNNAKYAISMARKIGARVYALPEDLVEVNPKMVMTVFACLMGKGM
modifications: fluorescein maleimide (FM) label; labeled residue not stated
For B1, the Kd in assay [1] was 4.5 nM; in assay [2] it was 8.7 nM.
